In PMC10767740:
pKd: −log10 of the molar value.

How the values were obtained:
[1] = test system: TDP-43 monomer (TDP-M); test: SPR; details: protein immobilized on CM5; SPR Biacore 8K, CM5 chip, protein amine-coupled (30 ug/mL in NaAc pH 4.0); TG12 7.8-8000 nM in 1x PBS + 0.02% Tween-20; 120 s association and dissociation; 1:1 …
[2] = test system: TDP-43 native oligomer (NA-O); test: SPR; details: protein immobilized on CM5, SPR Biacore 8K, CM5 chip, protein amine-coupled (30 ug/mL in NaAc pH 4.0), TG12 7.8-8000 nM in 1x PBS + 0.02% Tween-20, 120 s association and dissociation, 1:1 …

TDP-43 monomer (TDP-M), sequence (chain, as listed by the source): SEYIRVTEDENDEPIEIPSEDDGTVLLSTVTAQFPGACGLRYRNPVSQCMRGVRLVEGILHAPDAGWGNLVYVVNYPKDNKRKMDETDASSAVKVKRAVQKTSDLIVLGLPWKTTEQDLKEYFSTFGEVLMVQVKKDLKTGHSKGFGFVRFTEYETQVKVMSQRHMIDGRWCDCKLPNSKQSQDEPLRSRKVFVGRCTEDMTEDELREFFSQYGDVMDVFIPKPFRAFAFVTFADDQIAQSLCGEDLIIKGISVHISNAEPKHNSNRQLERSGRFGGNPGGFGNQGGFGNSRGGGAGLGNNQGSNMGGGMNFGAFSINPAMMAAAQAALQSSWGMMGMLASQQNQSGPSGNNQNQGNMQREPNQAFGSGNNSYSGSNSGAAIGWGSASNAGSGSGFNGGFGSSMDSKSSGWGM

Question: How did the pKd [1] turn out when TG12 was run?
Answer: 6.81

Question: And the pKd [2]?
Answer: 6.90
